The values that follow come from publication PMC8980021.

For experiment [1], the target named is wild type human CD80 extracellular domain Fc fusion (WT CD80 ECD-Fc) (human) (UniProt P33681). Briefly: SPR; Biacore 3000, CM5 chip with goat anti-human IgG capture antibody; ALPN-202 (120 RU) or WT CD80 ECD-Fc (160 RU) captured; monomeric human CD28, CTLA-4, PD-L1 as analytes; 240 s association, 600 s dissociation, 30 uL/min; global 1:1 fit; for the weak interactions a minimal KD with theoretical Rmax fixed. Background: Surface plasmon resonance follows binding to a sensor surface in real time, without labels.

The target of experiment [2] is ALPN-202 (davoceticept), variant CD80 IgV domain Fc fusion (human) (UniProt P33681). The description is as above.

What is called Kd is the constant that tells how readily two partners part at equilibrium. Low readings indicate tighter binding, high ones weaker binding. As to “recombinant monomeric human CD28 (from UniProt P10747 19-152) (receptor)”, the values for the Kd in experiment [1] and in experiment [2] were greater than 2600 nM and 9.9 nM, respectively.

In turn, “recombinant monomeric human PD-L1 (from UniProt Q9NZQ7 19-238) (ligand)” came in with a Kd in experiment [1] greater than 37000 nM.
